To fix the notation:
B1: wild-type polypeptide FLLGNLSFV (SEQ ID NO:5) (peptide)
peptide: FLLGNLSFV
notes: Made by solid phase peptide synthesis, HPLC purity >90%
B2: mutant polypeptide's variant FLLGNLFFL (SEQ ID NO:2) (peptide)
peptide: FLLGNLFFL
notes: as for B1
B3: mutant polypeptide's variant FMLGNLFFV (SEQ ID NO:3) (peptide)
peptide: FMLGNLFFV
notes: as for B1
B4: mutant polypeptide's variant FMLGNLFFL (SEQ ID NO:4) (peptide)
peptide: FMLGNLFFL
notes: as for B1
B5: mutant polypeptide FLLGNLFFV (SEQ ID NO:1) (peptide)
peptide: FLLGNLFFV
notes: Made by solid phase peptide synthesis, HPLC purity >90%; also called OR4K5 S67F mutant polypeptide

For the test, the target named is T1, HLA-A0201 on the surface of T2 cells (human).
T1 construct: surface HLA-A*02:01 is detected with an anti-HLA-A*02:01 FITC monoclonal antibody after loading with peptide
The test can be described thus: T2 cell peptide loading assay, 100 uM peptide, anti-HLA-A*02:01 FITC, flow cytometry.
Experimental: After centrifugation at 200 g for 5 minutes for cell collection, the collected cells were washed with phosphate buffer saline (PBS) buffer twice, before incubated with anti-HLA-A*02:01 FITC monoclonal antibody at 4° C. for 30 minutes. The mean fluorescence intensity of cells was then detected and analyzed by the flow cytometry (BD FACSJazz™) and its software.
B1: the “FI (fluorescence index)” value is 2.27 and the Mean fluorescence intensity is 724.

For B2, the “FI (fluorescence index)” value was 2.17 and the Mean fluorescence intensity came to 702.

As for B3, the “FI (fluorescence index)” value is 2.13 and the Mean fluorescence intensity came to 694.

Consider B4, for which the “FI (fluorescence index)” value amounted to 2.1 and the Mean fluorescence intensity came to 686.

In the case of B5, the “FI (fluorescence index)” value amounted to 2.22 and the Mean fluorescence intensity was 713.

(Values after patent US20190263863A1 (GENOIMMUNE THERAPEUTICS, published 2019).)
